Experimental data taken from US11872261B2, “Lipoprotein targeting protease inhibitors and uses” (The United States of America, as represented by the …, priority 2016, dated 2024).
No end group written: not given here. PEG2000 = poly(ethylene) glycol, 2000; VitE = vitamin E (alpha tocopherol)

Tests used:
reconstituted HDL (rHDL) = target: T1, reconstituted HDL (rHDL) (Homo sapiens, UniProt P02647); assay: Binding of A1AT to reconstituted HDL, size exclusion chromatography; conditions: gel filtration profile, HDL containing apoA-I and phospholipids
T1 construct: Reconstituted HDL was prepared by cholate dialysis method, using human purified apolipoprotein A-I; from tissue
Method: FIG. 7A-7B. Alpha-1-antitrypsin has reduced anti-elastase activity when bound to reconstituted HDL. Reconstituted HDL (rHDL) were prepared from apoA-I and phospholipids by cholate dialysis and then co-incubated with alpha-1-antitrypsin (A1AT) to generate A1AT enriched rHDL. (FIG. 7A) Size exclusion chromatography on tandem Superdex 200 columns was used to isolate HDL bound A1AT from lipid free protein. (FIG. 7B) The ability of lipid free and rHDL bound A1AT to inhibit neutrophil elastase (NE) activity was measured by fluorometric assay.
Reconstituted HDL was prepared by cholate dialysis method, using human purified apolipoprotein A-I and 1-palmitoyl-2-oleoyl-sn-glycero-3-phosphocholine (Avanti) as previously described (Matz & Jonas, J Biol Chem 257: 4535-4540, 1982). Native human HDL was isolated from plasma by sequential density gradient ultracentrifugation (Chapman et al., J Lipid Res 22: 339-358, 1981). Reconstituted or native HDL was co-incubated with alpha-1-antitrypsin protein (Human, Sigma Aldrich) overnight at 37° C. Unbound A1AT was removed by filtration, using Amicon Ultra 100 kDa centrifugal filter units (Millipore). Elastase activity assays were performed with the EnzChek® elastase assay kit (Life Technologies). […]

J774 mouse macrophages = assay: Elastase induced TNF-α production by J774 macrophages; assay type: cell-based
Method: (§1) FIG. 9A-9E. Alpha-1-antitrypsin enriched HDL prevents elastase induced TNF-α production by macrophages. (FIG. 9A) J774 mouse macrophages treated with increasing amounts of porcine pancreatic elastase (PPE) or heat inactivated elastase for 4 hours, TNF-α in the culture media was measured by ELISA. (FIG. 9B) J774 cells pretreated with PBS, isolated human HDL (nHDL), the same HDL enriched with alpha-1-antitrypsin (A1AT nHDL), or lipid free A1AT for 1 hour prior to PPE addition. (FIG. 9C) The ability of each of the cell treatments to inhibit elastase activity was measured in a cell-free assay. (FIG. 9D) Treatments were pre-incubated with PPE prior to addition to cells and TNF-α was measured in the culture media after 4 hours. (FIG. 9E) J774 cells were pre-incubated with each treatment for 1 hour; cells were then washed twice with PBS and placed in fresh media containing PPE and TNF-α was measured in the culture media after 4 hours. All experiments were repeated at least 3 times and were done in triplicates. Treatments were compared using one-way ANOVA and Tukey's multiple comparisons test, p<0.05 was considered significant. The letters above each treatment indicate statistical significance; within each graph, bars bearing different letters were statistically different from each other.
J774 mouse macrophages were used to examine the potential functional role of alpha-1-antitrypsin enriched HDL in inflammation. For these experiments, cells were plated in 12-well culture plates at a density of 1×10^5 cells/well two days prior to the experiment. Cells were washed twice with PBS and placed in serum-free media for 1 hour prior to addition of treatment. Treatments (PBS, nHDL, A1AT-HDL or A1AT) were added to serum-free culture media: HDL protein was matched for nHDL and A1AT-nHDL at a final concentration of 200 μg/mL. A1AT concentration was matched between free A1AT and A1AT-nHDL at a final concentration of 2 μM. Cells were then incubated with elastase (porcine pancreas, Sigma Aldrich, 500 nM) for 4 hours and media was collected and centrifuged at 3,000×g for 5 min to pellet any loose cells or debris and supernatant was transferred to fresh tubes and stored at −80° C. until further analysis. Elisa assays for mouse TNF-α (BioLegend) were performed on cell culture media.
Next, J774 cells were pre-incubated with PBS, native HDL (nHDL), A1AT enriched nHDL, or lipid-free A1AT for 1 hour prior to the addition of elastase to the culture media to allow for […] of A1AT.

[1] = target: T2, porcine pancreatic elastase (PPE) (Sus scrofa, UniProt P00772); assay: Elastase inhibition of the cell treatments in a cell-free assay; assay type: biochemical; conditions: same treatments as for J774 cells
T2 construct: incubated with elastase (porcine pancreas, Sigma Aldrich, 500 nM) for 4 hours; purchased Sigma Aldrich; host or cells: porcine pancreas
Method: as §1, with “other. […]” for “other.”

elastase = target: T3, elastase (Sus scrofa, UniProt P00772); assay: EnzChek elastase inhibitor assay (Example 3); assay type: biochemical; conditions: EnzChek Elastase Assay Kit
T3 construct: purchased Molecular Probes E-12056
Text: Elastase Inhibitor Assay.

HDL = assay: E-AAPV coincubated with purified human HDL, HDL repurified and tested for elastase inhibitor activity; assay type: binding; conditions: coincubated 30 minutes at 37° C., HDL repurified by size-exclusion chromatography
Method: Isolated Human HDL was co-incubated with the E-AAPV (SEQ ID NO: 5) peptide for 30 minutes at 37° C. and then HDL was reisolated by FPLC to remove unbound E-AAPV (SEQ ID NO: 5). The HDL was then tested for elastase inhibition activity and compared to control HDL which was coincubated with PBS (no peptide) and repurified. Sampes were matched based on phospholipid content.
E-AAPV peptide binds HDL and confers elastase inhibitor activity. The reaction product (E-AAPV; SEQ ID NO: 5) was coincubated with purified human HDL for 30 minutes at 37° C. followed by repurification of HDL by size-exclusion chromatography to remove unbound E-AAPV (SEQ ID NO: 5) peptide. The repurified HDL was then tested for elastase inhibitor activity using the assay described above.
E-AAPV (SEQ ID NO: 5)-loaded HDL was compared to the same HDL that was coincubated with buffer only (No peptide). The HDL and HDL+E-AAPV (SEQ ID NO: 5) were normalized based on phospholipid content, determined by colorimetric assay, prior to measurement of elastase activity.

T3 sequence (P00772 27-266): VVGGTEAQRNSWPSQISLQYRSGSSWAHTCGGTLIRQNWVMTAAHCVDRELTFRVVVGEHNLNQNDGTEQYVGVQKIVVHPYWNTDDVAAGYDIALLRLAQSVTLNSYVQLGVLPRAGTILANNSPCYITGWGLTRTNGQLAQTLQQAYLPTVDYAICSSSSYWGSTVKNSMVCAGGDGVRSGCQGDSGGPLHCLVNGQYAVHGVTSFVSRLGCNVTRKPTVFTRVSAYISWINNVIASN
T1 sequence (P02647 25-267): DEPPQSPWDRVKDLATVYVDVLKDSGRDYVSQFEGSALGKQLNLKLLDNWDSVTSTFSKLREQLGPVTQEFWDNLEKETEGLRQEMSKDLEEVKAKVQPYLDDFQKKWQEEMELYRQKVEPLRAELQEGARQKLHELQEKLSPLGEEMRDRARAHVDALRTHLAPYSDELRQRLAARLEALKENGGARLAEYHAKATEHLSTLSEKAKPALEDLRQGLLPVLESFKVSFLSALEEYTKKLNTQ
T2 sequence (P00772 27-266): as the sequence (P00772 27-266) above

Row | Substance | association of A1AT with discoidal reconstituted HDL (reconstituted HDL (rHDL)) | proteolytic degradation of A1AT in cell culture media, western blot (J774 mouse macrophages; J774 cell culture media) | inhibition of elastase induced TNF-α production, treatment pre-incubated with elastase (J774 mouse macrophages; pre-incubated with elastase prior to addition to the cells) | protection against elastase induced TNF-α production (J774 mouse macrophages; pretreated 1 hour prior to elastase, A1AT 2 μM) | protection against elastase induced TNF-α production after removal of treatment (J774 mouse macrophages; pretreated 1 hour, cells washed, fresh media containing elastase) | inhibition of elastase activity in a cell-free system [1] | elastase inhibitor activity (elastase) | elastase inhibitor activity (elastase; listed as VitE-PEG-AAPV) | binding to HDL (HDL)
1 | A1AT: alpha-1-antitrypsin protein (Human, Sigma Aldrich), serine protease inhibitor | a significant fraction of A1AT associates with HDL | no evidence of proteolytic degradation | readily able to inhibit elastase induced TNF-α production | no significant protection | no effect | significant anti-elastase activity | – | – | –
2 | VitE-PEG-Ala-Ala-Pro-Val ({VitE-PEG2000}-AAPV) [E-AAPV, vitamin E linked to the A1AT linear peptide AAPV via a PEG2000 linker] | – | – | – | – | – | – | does not affect elastase inhibition activity | retains elastase inhibitor activity | binds HDL
